Results: patent US20040033954A1, “Therapeutic method for combined use of modified CNTF and thiadolidinedione” (priority 2002, published 2004)

Key:
[1] = cited from earlier work
[2] = previously found by the applicant; cited from earlier work
[3] = test system: C57Ks/J db/db male mice; assay: Fatty liver of db/db mice, Oil-Red O staining for neutral lipid; assay type: in vivo; details: 10-week-old db/db male mice; Avandia 3 or 10 mg/kg/day oral gavage for 13 days, ± Axokine 0.1 or 0.3 mg/kg/day in the last 8 days
Protocol: The effects of Avandia™ administration ±Axokine™ (SEQ ID NO:1) on fatty liver of db/db mice was examined. 10-week-old C57Ks/J db/db male mice were treated for 13 days with either vehicle or Avandia™ alone (3 or 10 mg/kg/day) by oral gavage or ±Axokine™ (0.1 or 0.3 mg/kg/day) in the last 8 days. 24 hours after the last administration (day 14) all animals were anesthetized , the liver removed and rapidly frozen until it could be processed. The tissues were sectioned, mounted on glass, and stained with Oil-Red O for the detection of neutral lipid.

[4] = test system: C57BL/KsJ db/db mice; assay: Body weight and food intake of db/db mice under daily treatment; assay type: in vivo
Protocol: FIG. 1 is a graph of the effect of co-administration of Axokine™ (SEQ ID NO:1) (0.1 or 0.3 mg/kg s.c.), Avandia™ (3 or 10 mg/kg/day oral gavage) , or vehicle for 12 days on body weight in C57BL/KsJ db/db mice (% change from the first day of treatment). At day 5 (arrow), two combined treatment groups were initiated receiving Avandia™ (3 mg/kg/day, oral gavage)+Axokine™ (0.1 or 0.3 mg/kg s.c.). All data represents the mean (n≧6)±SEM.
C57BL/KsJ db/db mice were treated by daily administration of Axokine™ (SEQ ID NO:1) (0.1 or 0.3 mg/kg s.c.), Avandia™ (3 or 10 mg/kg/day oral gavage), and vehicle (vehicle) for […], and the effect on body weight determined (FIG. 1, shown as the % change from the first day of treatment). […] A combined treatment group consisted of Avandia™ (3 mg/kg/day, oral gavage) +Axokine™ (0.1 or 0.3 mg/kg s.c.) administered for the […] (arrow, FIG. 1). All data represents the mean (n>6)±SEM.

[5] = daily injection 0.1 or 0.3 mg/kg s.c.

Molecule: CN(CCOc1ccc(CC2SC(=O)NC2=O)cc1)c1ccccn1 (stereo not shown) [Avandia™, rosiglitazone]
- body weight ([1]; Chaput et al. (2000)): increased body weight

Molecule: Cc1c(C)c2c(c(C)c1O)CCC(C)(COc1ccc(CC3SC(=O)NC3=O)cc1)O2 (stereo not shown) [troglitazone]
- hepatic reaction ([1]; patients, Lebovitz et al. (2002)): idiosyncratic hepatic reaction leading to hepatic failure and death in some patients

B1: Axokine™: modified CNTF molecule (SEQ ID NO:1) with improved physical and chemical properties, which activates the CNTF receptor (protein)
chain: MAFTEHSPLTPHRRDLASRSIWLARKIRSDLTALTESYVKHQGLNKNINLDSADGMPVASTDRWSELTEAERLQENLQAYRTFHVLLARLLEDQQVHFTPTEGDFHQAIHTLLLQVAAFAYQIEELMILLEYKIPRNEADGMPINVGDGGLFEKKLWGLKVLQELSQWTVRSIHDLRFISSHQTG
- effect on food intake and body weight, blood glucose and tolerance, and serum insulin levels [2]: profound effect
- deposition of neutral lipid in liver (Oil-Red O staining) [3]: reduced staining with Oil Red O
- body weight [4, 5]: caused weight loss
- food intake [4, 5]: decreased food intake
- body weight with increasing doses, versus vehicle control groups ([4]; increasing doses, ANOVA, P<0.0001 in all cases): further reduction in body weight
